This assay addresses T1, alpha-fragment of EGFP (alphaCys-fragment, 1-158) without oligonucleotide (Aequorea victoria, UniProt P42212 1-158 = GFP).
T1 construct: range 1-158; also called α-subunit of EGFP
Description: fluorescence spectra after mixing the fragments in vitro.

B1: beta-fragment of EGFP (betaCys-fragment, 159-234 aa) without oligonucleotide (other)
chain: not shown
notes: range 159-234; also called β-subunit of EGFP
On to B1, for which the binding result is listed as “no binding”.
